According to paper PMC11615899 (The Journal of Biological Chemistry, 2024):

Molecular target: the molecule itself
Assay: SEC

B1: F-BAR_(REMIND): the [70–347] region of TgREMIND with an N-terminal His-tag and five cysteines replaced (domain or fragment, Toxoplasma gondii, UniProt S8GLL7 70-347, looked up)
chain: APANATAENAFSFKEDLTSDWSLAVSRVDSGRTLLERLRAALLLRANAAVEQASKMESLVQTFVATNLESKTVMSAVNALRLEAVHQADHAREFAEAIRRDVVEGTLTNTIHNHYLVLQQIKADGSEAQKELTLATVDHQKAMHRYLRASKEAAAAAVKAQAAEGEAPNVRTELALSAIRRAVEAKAAEDEHRESVARLNAAAQANERKMAIILQSLQDMDEKRMLSFRDALRKAMVYQAAYLRNVQYDLEQTIKTVDAVDPMADLQEFLGKYRLPKK
  stoichiometry N: 6
